# Results reported in US20100062980A1, “THERAPEUTIC USES OF BETA-ANTAGONISTS” (priority 2006, published 2010).
# Entries after “also recorded” stand apart in the source; their conditions may differ.
# B1: β-cardiotoxin: three-finger toxin protein isolated from Ophiophagus hannah (king cobra) venom, SEQ ID No.3, β-adrenergic receptor blocker (protein)
# chain: RKCLNTPLPLIYTTCPIGQDKCVKMTIKKLPSKYDVIRGCIDICPKSSADVEVLCCDTNKCNK
# Experiments:
# [1] = test system: intrinsic pathway of blood coagulation (human plasma); experiment: Anticoagulant activity, recalcification time; format: biochemical; conditions: 50 μM protein per assay, vs control
# Description: (§1) The anticoagulant activity of the purified protein was tested by two coagulation tests using a BBL fibrometer. Blood plasma was collected from healthy human volunteers.
# Recalcification time—The recalcification times were measured according to the method of Langdell et al. (26). 100 μl of 50 mM Tris-HCl buffer (pH 7.4), 100 μl of plasma and 50 μl of the protein dissolved in the assay buffer were preincubated for 2 min at 37° C. Clotting was initiated by the addition of 50 μl of 50 mM CaCl2.
# Swiss albino male mice = format: in vivo; conditions: mice
# Source text: (§2) Swiss albino male mice (˜20 g) were used for the in vivo toxicity study. Male Sprague-Dawley (SD) rats were used for electrocardiogram (ECG) monitoring (3-4 weeks old, ˜80-100 g) and the Langendorff isolated perfused heart experiments (8 weeks old, ˜250 g). Animals were acquired from the university Laboratory Animal Center (LAC) and were acclimatized to the Animal Holding Unit surroundings for at least 3 days prior to the experiments. Animals were kept under standard conditions with food and water available ad lib. All animal experiments were conducted according to the protocol (776/05a) approved by the Institutional Animal Care and Use Committee (IACUC) of the National University of Singapore.
# (§3) The protein was dissolved in 200 μl of 0.9% NaCl (Braun, Malaysia) and administered through the intra-peritoneal (i.p.) route for the in vivo toxicity study in mice. Intra-tail vein (i.t.v.) administration was done in the ECG monitoring study in rats. The various protein doses were dissolved in 200 μl of 0.9% NaCl solution and injected into the tail vein using a 27 G ½ needle (Becton Dickinson, Franklin Lakes, N.J.) held at an angle of about 10° to the tail. The infusion was made very slowly and at a steady rate.
# After purification of the protein from snake venom, i.p. doses of 1 mg/kg, 10 mg/kg and 100 mg/kg were administered to healthy male mice (three animals per group) and the symptoms were observed and recorded. 0.9% NaCl was injected as control. Postmortem examinations were conducted on the animals after their death/sacrifice.
# [2] = test system: Langendorff isolated perfused rat hearts; experiment: Langendorff isolated perfused heart; conditions: 5 μM in KH solution, 10 min
# Description: Rats were anesthetized with 7% chloral hydrate (5 ml/kg). 2 ml of 50 I.U. heparin (David Bull Laboratories, Warwick, UK) was injected i.p. 15 min prior to sacrificing the animal. The heart was excised rapidly and placed in oxygenated Krebs-Henseleit (KH) solution (in mM/1: NaCl 118.0, KCl 4.5, KH2PO4 1.4, MgSO4 1.2, NaHCO3 25, CaCl2 1.4 and glucose 11; pH 7.4) before the aorta was cannulated on the Langendorff apparatus. Non-recirculating mode of retrograde perfusion with KH solution was carried out at a constant flow (6-7 ml/min) at 37° C. The buffer was continuously bubbled with 95% O2 and 5% CO2. The hearts were allowed to equilibrate for 30 min and in study groups the buffer flow was switched to a second reservoir which contained 5 μM of the protein dissolved in KH solution, plain KH solution was passed for further 15 min in case of control group.
# A water-filled latex balloon was attached to a pressure transducer and inserted through the mitral valve into the left ventricle (LV) through an incision in the left atrium. The pressure transducer was connected to a Powerlab (ADInstruments, Castle Hill, NSW, Australia) data recording system. The following indices of cardiac performance were measured and averaged from ten beats for each condition: heart rate (HR, in beats/min) and left ventricle diastolic end pressure (LVDEP, in mmHg), which is an index of contractile activity. […]
# anesthetized male rats = experiment: Electrocardiogram monitoring and heart rate determination; format: in vivo, Sprague-Dawley rats; conditions: i.t.v., 1 mg/kg, 10 min after administration (FIG. 8)
# Source text: as §2, §3
# For electrocardiogram (ECG) measurements, Sprague-Dawley rats were anesthetized with an i.p. dose of 7% chloral hydrate (5 ml/kg). […]
# [3] = test system: extrinsic pathway of blood coagulation (human plasma); experiment: Anticoagulant activity, prothrombin time; format: biochemical; conditions: 50 μM protein per assay, vs control
# Description: as §1
# Prothrombin time—The prothrombin times were measured according to the method of Quick (25). 100 μl of 50 mM Tris-HCl buffer (pH 7.4), 100 μl of plasma and 50 μl of the protein dissolved in the assay buffer were preincubated for 2 min at 37° C. Clotting was initiated by the addition of 150 μl of thromboplastin with calcium reagent (Sigma-Aldrich, St Louis, Mo.).
molecule,measurement,setting,value
B1,"change in clotting time, recalcification time",[1],does not show any hemolytic or anticoagulant activity; also recorded: did not cause any significant changes in the clotting time
same,postmortem examination,"Swiss albino male mice; i.p., 100 mg/kg",did not reveal any hemorrhage or visual damage to internal organs
same,time to death,"Swiss albino male mice; i.p., 100 mg/kg",about 30 min
same,dose up to which the protein was not lethal,Swiss albino male mice; intraperitoneal,≤ 10 mg/kg
same,change in contractility (LVDEP),[2],without any significant change in the contractility; also recorded: without affecting the contractility
same,change in heart rate,[2],dose-dependent decrease of the heart rate; also recorded: marked reduction in the heart rate
same,change in heart rate (ECG),anesthetized male rats,dose-dependent decrease of the heart rate; also recorded: decrease in the heart rate; also recorded: dose-dependent decrease in heart rate
same,"change in clotting time, prothrombin time",[3],does not show any hemolytic or anticoagulant activity; also recorded: did not cause any significant changes in the clotting time
